# Data published in PMC9352680, “A comprehensive thermodynamic model for RNA binding by the Saccharomyces cerevisiae Pumilio protein PUF4”.
# T1: PUF4 RNA-binding domain (Saccharomyces cerevisiae, UniProt P25339 537-888)
# T1 sequence: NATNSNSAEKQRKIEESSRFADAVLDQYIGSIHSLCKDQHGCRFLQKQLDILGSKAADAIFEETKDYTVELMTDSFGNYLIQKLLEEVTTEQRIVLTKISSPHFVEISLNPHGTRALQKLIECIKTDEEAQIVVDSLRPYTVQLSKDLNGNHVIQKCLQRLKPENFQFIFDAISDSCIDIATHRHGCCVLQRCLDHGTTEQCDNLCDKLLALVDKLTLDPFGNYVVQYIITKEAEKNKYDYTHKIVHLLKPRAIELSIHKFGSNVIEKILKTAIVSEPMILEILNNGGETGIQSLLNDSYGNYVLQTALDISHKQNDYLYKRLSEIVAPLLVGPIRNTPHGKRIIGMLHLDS
# Target: T1, PUF4 RNA-binding domain
# Assay: Mg; RNA-MaP; 20 mM Na-HEPES pH 7.4, 30 mM KOAc, 0.75 mM MgCl2, 0.1% Tween-20, 5% glycerol, 0.1 mg/mL BSA, 2 mM DTT; 25 C; 0.0125-409.6 nM protein
# Details: tags: N-His6-TEV cleaved; C-SNAP kept, Cy3B-labelled; label: tethered on chip by stalled RNA polymerase
row,Binder,Kd [nM]
1,ACAAACAGUAUAUAACAAAC (ssRNA) [Ia_S3_P3E.1_K3.1_C3.1_H3.1_[T1A]_A3.1_F3.1_T3.1],2000
2,Ib_S4_P3E.1_K3.1_C3.1_H3.1_A3.1_F3.1_[T7C]_[A8G]_T3.1 (ssRNA) RNA: UUUGACAACUGAUCGUUCUUUCUUGUAUACGUUCUUUCUCGAUCAGUUGUCUUU,60.4
3,Ib_S4_P3E.1_K3.1_C3.1_H3.1_[T3C]_A3.1_F3.1_[A8T]_T3.1 (ssRNA) RNA: UUUGACAACUGAUCGUUCUUUCUUGCAUAUUUUCUUUCUCGAUCAGUUGUCUUU,1510
4,Ib_S4_P3E.1_K3.1_C3.1_H3.1_[G2C]_A3.1_F3.1_[T7A]_T3.1 (ssRNA) RNA: UUUGACAACUGAUCGUUCUUUCUUCUAUAAAUUCUUUCUCGAUCAGUUGUCUUU,> 2300
5,Ic_S4_P3E.1_K3.1_C3.1_H3.1_A3.1_[T5A]_F3.1_[A8G]_T3.1 (ssRNA) RNA: UUUGACAACUGAUCGUUCUUUCUUGUAAAUGUUCUUUCUCGAUCAGUUGUCUUU,296
6,Ic_S4_P3E.1_K3.1_C3.1_H3.1_A3.1_[A6C]_F3.1_[A8T]_T3.1 (ssRNA) RNA: UUUGACAACUGAUCGUUCUUUCUUGUAUCUUUUCUUUCUCGAUCAGUUGUCUUU,13.5
7,Ib_S4_P3E.1_K3.1_C3.1_H3.1_[G2C]_[A4C]_A3.1_F3.1_T3.1 (ssRNA) RNA: UUUGACAACUGAUCGUUCUUUCUUCUCUAUAUUCUUUCUCGAUCAGUUGUCUUU,> 2300
8,Ib_S4_P3E.1_K3.1_C3.1_H3.1_[G2C]_[A4G]_A3.1_F3.1_T3.1 (ssRNA) RNA: UUUGACAACUGAUCGUUCUUUCUUCUGUAUAUUCUUUCUCGAUCAGUUGUCUUU,2.45
9,Ib_S4_P3E.1_K3.1_C3.1_H3.1_[A4C]_A3.1_F3.1_[T7C]_T3.1 (ssRNA) RNA: UUUGACAACUGAUCGUUCUUUCUUGUCUACAUUCUUUCUCGAUCAGUUGUCUUU,> 2300
10,Ib_S4_P3E.1_K3.1_C3.1_H3.1_A3.1_F3.1_[T7C]_[A8C]_T3.1 (ssRNA) RNA: UUUGACAACUGAUCGUUCUUUCUUGUAUACCUUCUUUCUCGAUCAGUUGUCUUU,28.9
11,Ib_S4_P3E.1_K3.1_C3.1_H3.1_[T1A]_[A4C]_A3.1_F3.1_T3.1 (ssRNA) RNA: UUUGACAACUGAUCGUUCUUUCUAGUCUAUAUUCUUUCUCGAUCAGUUGUCUUU,> 2300
12,Ib_S4_P3E.1_K3.1_C3.1_H3.1_[G2A]_A3.1_F3.1_[T7A]_T3.1 (ssRNA) RNA: UUUGACAACUGAUCGUUCUUUCUUAUAUAAAUUCUUUCUCGAUCAGUUGUCUUU,> 2300
13,Ic_S4_P3E.1_K3.1_C3.1_H3.1_A3.1_[T5C]_F3.1_[A8C]_T3.1 (ssRNA) RNA: UUUGACAACUGAUCGUUCUUUCUUGUACAUCUUCUUUCUCGAUCAGUUGUCUUU,9.55
14,Ib_S4_P3E.1_K3.1_C3.1_H3.1_[T1C]_[A4C]_A3.1_F3.1_T3.1 (ssRNA) RNA: UUUGACAACUGAUCGUUCUUUCUCGUCUAUAUUCUUUCUCGAUCAGUUGUCUUU,> 2300
15,Ib_S4_P3E.1_K3.1_C3.1_H3.1_[T1A]_A3.1_F3.1_[T7C]_T3.1 (ssRNA) RNA: UUUGACAACUGAUCGUUCUUUCUAGUAUACAUUCUUUCUCGAUCAGUUGUCUUU,> 2300
16,Ib_S4_P3E.1_K3.1_C3.1_H3.1_[T1G]_[A4C]_A3.1_F3.1_T3.1 (ssRNA) RNA: UUUGACAACUGAUCGUUCUUUCUGGUCUAUAUUCUUUCUCGAUCAGUUGUCUUU,> 2300
17,Ic_S4_P3E.1_K3.1_C3.1_H3.1_A3.1_[A6G]_F3.1_[A8T]_T3.1 (ssRNA) RNA: UUUGACAACUGAUCGUUCUUUCUUGUAUGUUUUCUUUCUCGAUCAGUUGUCUUU,25.7
18,Ib_S4_P3E.1_K3.1_C3.1_H3.1_[G2C]_A3.1_F3.1_[A8T]_T3.1 (ssRNA) RNA: UUUGACAACUGAUCGUUCUUUCUUCUAUAUUUUCUUUCUCGAUCAGUUGUCUUU,1640
19,Ib_S4_P3E.1_K3.1_C3.1_H3.1_[T3C]_[A4C]_A3.1_F3.1_T3.1 (ssRNA) RNA: UUUGACAACUGAUCGUUCUUUCUUGCCUAUAUUCUUUCUCGAUCAGUUGUCUUU,> 2300
20,Ib_S4_P3E.1_K3.1_C3.1_H3.1_[T1C]_A3.1_F3.1_[A8T]_T3.1 (ssRNA) RNA: UUUGACAACUGAUCGUUCUUUCUCGUAUAUUUUCUUUCUCGAUCAGUUGUCUUU,645
21,Ib_S4_P3E.1_K3.1_C3.1_H3.1_[G2C]_[A4T]_A3.1_F3.1_T3.1 (ssRNA) RNA: UUUGACAACUGAUCGUUCUUUCUUCUUUAUAUUCUUUCUCGAUCAGUUGUCUUU,1800
22,Ib_S4_P3E.1_K3.1_C3.1_H3.1_A3.1_[T5A]_F3.1_[T7A]_T3.1 (ssRNA) RNA: UUUGACAACUGAUCGUUCUUUCUUGUAAAAAUUCUUUCUCGAUCAGUUGUCUUU,262
23,Ib_S4_P3E.1_K3.1_C3.1_H3.1_[G2T]_[A4G]_A3.1_F3.1_T3.1 (ssRNA) RNA: UUUGACAACUGAUCGUUCUUUCUUUUGUAUAUUCUUUCUCGAUCAGUUGUCUUU,3.32

row,Binder,Kd [nM]
1,Ib_S4_P3E.1_K3.1_C3.1_H3.1_A3.1_[A6G]_F3.1_[A8G]_T3.1 (ssRNA) RNA: UUUGACAACUGAUCGUUCUUUCUUGUAUGUGUUCUUUCUCGAUCAGUUGUCUUU,38.2
2,Ib_S4_P3E.1_K3.1_C3.1_H3.1_A3.1_[A6T]_F3.1_[A8C]_T3.1 (ssRNA) RNA: UUUGACAACUGAUCGUUCUUUCUUGUAUUUCUUCUUUCUCGAUCAGUUGUCUUU,28.4
3,Ib_S4_P3E.1_K3.1_C3.1_H3.1_[T3C]_[A4T]_A3.1_F3.1_T3.1 (ssRNA) RNA: UUUGACAACUGAUCGUUCUUUCUUGCUUAUAUUCUUUCUCGAUCAGUUGUCUUU,2120
4,Ib_S4_P3E.1_K3.1_C3.1_H3.1_[T1C]_A3.1_[T5A]_F3.1_T3.1 (ssRNA) RNA: UUUGACAACUGAUCGUUCUUUCUCGUAAAUAUUCUUUCUCGAUCAGUUGUCUUU,> 2300
5,Ib_S4_P3E.1_K3.1_C3.1_H3.1_[G2C]_A3.1_F3.1_[T7C]_T3.1 (ssRNA) RNA: UUUGACAACUGAUCGUUCUUUCUUCUAUACAUUCUUUCUCGAUCAGUUGUCUUU,610
6,Ib_S4_P3E.1_K3.1_C3.1_H3.1_[G2T]_A3.1_F3.1_[A8G]_T3.1 (ssRNA) RNA: UUUGACAACUGAUCGUUCUUUCUUUUAUAUGUUCUUUCUCGAUCAGUUGUCUUU,> 2300
7,Ib_S4_P3E.1_K3.1_C3.1_H3.1_[T3C]_[A4G]_A3.1_F3.1_T3.1 (ssRNA) RNA: UUUGACAACUGAUCGUUCUUUCUUGCGUAUAUUCUUUCUCGAUCAGUUGUCUUU,1160
8,Ib_S4_P3E.1_K3.1_C3.1_H3.1_[G2A]_[A4G]_A3.1_F3.1_T3.1 (ssRNA) RNA: UUUGACAACUGAUCGUUCUUUCUUAUGUAUAUUCUUUCUCGAUCAGUUGUCUUU,5.75
9,Ic_S4_P3E.1_K3.1_C3.1_H3.1_A3.1_[T5A]_F3.1_[T7C]_T3.1 (ssRNA) RNA: UUUGACAACUGAUCGUUCUUUCUUGUAAACAUUCUUUCUCGAUCAGUUGUCUUU,374
10,Ib_S4_P3E.1_K3.1_C3.1_H3.1_[T1A]_A3.1_[T5C]_F3.1_T3.1 (ssRNA) RNA: UUUGACAACUGAUCGUUCUUUCUAGUACAUAUUCUUUCUCGAUCAGUUGUCUUU,> 2300
11,Ib_S4_P3E.1_K3.1_C3.1_H3.1_A3.1_[A6G]_F3.1_[T7C]_T3.1 (ssRNA) RNA: UUUGACAACUGAUCGUUCUUUCUUGUAUGCAUUCUUUCUCGAUCAGUUGUCUUU,295
12,Ib_S4_P3E.1_K3.1_C3.1_H3.1_[G2C]_A3.1_F3.1_[A8C]_T3.1 (ssRNA) RNA: UUUGACAACUGAUCGUUCUUUCUUCUAUAUCUUCUUUCUCGAUCAGUUGUCUUU,> 2300
13,Ib_S4_P3E.1_K3.1_C3.1_H3.1_[T1G]_A3.1_F3.1_[A8T]_T3.1 (ssRNA) RNA: UUUGACAACUGAUCGUUCUUUCUGGUAUAUUUUCUUUCUCGAUCAGUUGUCUUU,> 2300
14,Ib_S4_P3E.1_K3.1_C3.1_H3.1_[T1G]_A3.1_[T5C]_F3.1_T3.1 (ssRNA) RNA: UUUGACAACUGAUCGUUCUUUCUGGUACAUAUUCUUUCUCGAUCAGUUGUCUUU,1810
15,Ib_S4_P3E.1_K3.1_C3.1_H3.1_[A4G]_A3.1_F3.1_[T7A]_T3.1 (ssRNA) RNA: UUUGACAACUGAUCGUUCUUUCUUGUGUAAAUUCUUUCUCGAUCAGUUGUCUUU,35.5
16,Ib_S4_P3E.1_K3.1_C3.1_H3.1_[A4C]_A3.1_F3.1_[A8T]_T3.1 (ssRNA) RNA: UUUGACAACUGAUCGUUCUUUCUUGUCUAUUUUCUUUCUCGAUCAGUUGUCUUU,289
17,Ic_S4_P3E.1_K3.1_C3.1_H3.1_A3.1_[A6T]_F3.1_[T7A]_T3.1 (ssRNA) RNA: UUUGACAACUGAUCGUUCUUUCUUGUAUUAAUUCUUUCUCGAUCAGUUGUCUUU,82
18,Ib_S4_P3E.1_K3.1_C3.1_H3.1_A3.1_[A6T]_F3.1_[A8T]_T3.1 (ssRNA) RNA: UUUGACAACUGAUCGUUCUUUCUUGUAUUUUUUCUUUCUCGAUCAGUUGUCUUU,11.9
19,Ib_S4_P3E.1_K3.1_C3.1_H3.1_A3.1_[A6T]_F3.1_[T7C]_T3.1 (ssRNA) RNA: UUUGACAACUGAUCGUUCUUUCUUGUAUUCAUUCUUUCUCGAUCAGUUGUCUUU,121
20,ACAAACAGUAUUAUUAACAAAC (ssRNA) [Ia_S3_P5E.1_K5.1_C5.1_H5.1_[T1A]_A5.1_F5.1_T5.1],1980
21,ACAAACUAUAUAUUAACAAAC (ssRNA) [Ia_S3_P4E.1_K4.1_C4.1_H4.1_[G2A]_A4.1_F4.1_T4.1],33.9
22,ACAAACUGUCUUAUUAACAAAC (ssRNA) [Ia_S3_P5E.1_K5.1_C5.1_H5.1_[A4C]_A5.1_F5.1_T5.1],365
23,Ia_S2_P5E.1_K5.1_C5.1_H5.1_A5.1_[A7T]_F5.1_T5.1 (ssRNA) RNA: UUUGAUUAAUAUGAUAUCGUUCUUUCUUGUAUUUUUAUUCUUUCUCGAUAUCAUAUUAAUCUUU,2.11
